β-galactosidase activity (units of β-galactosidase activity) data for 1 substance are collected here from paper PMC2175253.

A value given as a limit tells only on which side of the number the result lay.

Common to all, as to test: two-hybrid
Test [1] addresses α-catenin, full-length (pBTM116-HA-α-catenin) (mouse) (UniProt P26231).
Test [2] deals with α-catenin COOH-terminal half (pBTM116-HA-α-catenin-C) (mouse) (UniProt P26231).
Test [3] deals with nectin-2α cytoplasmic region (pBTM116-HA-nectin-2α-CP) (mouse).
nectin-2α cytoplasmic region (pBTM116-HA-nectin-2α-CP) (mouse), sequence (P32507 387-467): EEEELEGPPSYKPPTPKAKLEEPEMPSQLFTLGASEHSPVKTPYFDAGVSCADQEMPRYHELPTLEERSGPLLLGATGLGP

As to “l-afadin (pGAD424-HA-l-afadin), full-length, HA-tagged and fused with the GAL4 activation domain (from UniProt O35889-1 1-1829) (natural protein)”, the β-galactosidase activity (units of β-galactosidase activity) in test [1] is below 1; in test [2], 30; in test [3], 41.
